Assay results as given in patent publication US6358924B1, “GLP-1 formulations” (Eli Lilly and Company, priority 1997, dated 2002).

How the values were obtained:
[1] = Circular dichroism of Val^8-GLP-1 / GLP-1 secondary structure with bound DSS; assay type: physicochemical
Text: A slightly larger form of Val^8-GLP-1 with DSS molecule(s) bound to it was observed on size-exclusion chromatography (SEC) and the altered secondary structure was noted by circular dichroism experiments (CD).

[2] = Solution clarity of m-cresol-preserved Val^8-GLP-1 solution with other surfactants, Example 4; assay type: physicochemical; details: m-cresol about 3 mg/ml; for clarity of Val^8-GLP-1 solution with added surfactant: 10 μl surfactant in 500 μL of 1 mg/ml peptide, ambient temperature about 3 hours; for solution appearance: without any additives
Experimental: A formulation of the invention was prepared by dissolving Val^8-GLP-1(7-37)OH at 1 mg/ml in an aqueous solution containing 16 mg/ml glycerin and 10 mM sodium tribasic phosphate. The solution was adjusted to about pH 8.0 using 2N HCl.
(§1) The preservative m-cresol was prepared at a concentration of 100 mg/ml in absolute ethanol.
Various formulation excipients listed herein were added to 500 μL aliquots of the Val^8-GLP-1(7-37)OH solution in 3-ml glass vials. After stirring for about 45 minutes at ambient temperature, 15.8 μl of a 100 mg/ml m-cresol solution in absolute ethanol was added to give a m-cresol concentration of about 3 mg/ml.
Without any additives, the Val^8-GLP-1 solution becomes hazy at both ambient temperature and at 4° C.

[3] = Storage stability (solution clarity, HPLC purity) of m-cresol-preserved Val^8-GLP-1(7-37)OH formulations with DSS, Example 1; assay type: physicochemical; details: for time solution remained clear: 4° C.; for HPLC purity after storage: 6 weeks at 4° C.
Experimental: A formulation of the invention was prepared by dissolving Val^8-GLP-1(7-37)OH at 1 mg/ml in an aqueous solution containing 16 mg/ml glycerin and 10 mM sodium tribasic phosphate. The solution was adjusted to about pH 8.1 using 1N HCl.
as §1
Sodium docusate (DSS) was prepared at a concentration of 20 mg/ml in water with gentle warming on a hot plate.
To each of 500 μL aliquots of the Val^8-GLP-1(7-37)OH solution in 3-ml glass vials were added 0, 3.3, 6.6 or 16.5 μL of the DSS solution followed by 15.8 μL of the preservative m-cresol solution. After gentle mixing of the components in the vials by hand swirling the pH of each clear solution was-adjusted to pH 7.8. Replicate samples were incubated at 4° C., ambient temperature, and 37° C. Within 4 hours at ambient temperature, the samples containing 0 or 3.3 μL of the DSS solution had become hazy due to peptide denaturation.
After incubation for 16 hours at 37° C., all four types of samples were clear. The solutions were then incubated at 4° C. Again, the solutions containing 0 or 3.3 μL of the DSS solutions became, and remained, hazy.
The solutions containing 6.6 μL or 16.5 μL of the DSS solution, which correspond to 2:1 and 10:1 molar ratios DSS to Val^8-GLP-1(7-37)OH, respectively, remained clear at 4° C. for at least 6 weeks.

[4] = Storage stability (solution clarity, HPLC purity) of preserved Val^8-GLP-1(7-37)OH formulation with DSS 2:1, Example 2; assay type: physicochemical; details: for solution appearance: DSS 2:1, m-cresol about 3.15 mg/ml; for HPLC purity after storage: DSS 2:1, m-cresol
Experimental: A formulation of the invention was prepared by dissolving Val^8-GLP-1(7-37)OH at about 1.0 mg/ml in an aqueous solution containing 16 mg/ml glycerin and 10 mM sodium tribasic phosphate. The solution was adjusted to about pH 8.0 using 5N HCl. The solution was then filtered through 0.2μ and 0.02μ filters. The peptide concentration was quantified by ultraviolet (UV) analysis at 280 nm.
6.5 ml of the Val^8-GLP-1 solution was added to 1.62 mg of solid DSS, which had been dried from a 100 mg/ml solution in absolute ethanol, to give a 2:1 molar ratio of DSS to Val^8-GLP-1. After gently stirring 15 minutes at ambient temperature the solution was added to 20.5 mg of m-cresol, which had been dried from a 100 mg/ml solution in absolute ethanol, to give a m-cresol concentration of about 3.15 mg/ml. After stirring 15 minutes at ambient temperature, the solution was adjusted to about pH 7.7 and passed through a 0.2μ filter. Portions of this formulation were stored at 4° C. and at ambient temperature.
After 18 weeks, the formulations maintained at 4° C. and at ambient temperature were examined. Both solutions were clear.

[5] = system: beagle dogs clamped at an elevated glycemic level (200 mg/dl); test: Hyperglycemic clamp, glucose infusion rate after subcutaneous injection; assay type: in vivo; details: formulation containing DSS
Experimental: A portion of the formulation from Example 2 was injected subcutaneously into beagle dogs that were clamped at an elevated glycemic level (200 mg/dl). 3 nmoles/kg of Val^8-GLP-1 were injected into each animal. Glucose infusion rates needed to maintain hyperglycemia were measured for 2.5 hours after the injections and compared to injections of a vehicle control solution.

With “GLP-1(7-37) (HAEGTFTSDVSSYLEGEAAKEFIAWLVKGRG; listed as Homo sapiens)” the “reversion to alpha-helix conformation” value ([1]; GLP-1-DSS mixture, 2-day dialysis, CD study) was “did not revert”.
In the case of Tween-80, the “clarity of Val^8-GLP-1 solution with added surfactant” value [2] is reported as “preserved solution clarity”.
In the case of Tween-40, the “clarity of Val^8-GLP-1 solution with added surfactant” value [2] is reported as “preserved solution clarity”.
With Val^8-GLP-1(7-37)OH the solution appearance ([3]; 0 μL DSS solution, incubated at 4° C. after 16 hours at 37° C.) was “hazy”, the solution appearance ([3]; 0 μL DSS solution, m-cresol, pH 7.8, within 4 hours at ambient temperature) was “hazy” and the solution appearance ([3]; 3.3 μL DSS solution, incubated at 4° C. after 16 hours at 37° C.) was “hazy”. The solution appearance ([3]; 3.3 μL DSS solution, m-cresol, pH 7.8, within 4 hours at ambient temperature) was “hazy”, the “time solution remained clear” value ([3]; 6.6 μL DSS solution (2:1 molar ratio DSS to peptide)) was “at least 6 weeks” and the “HPLC purity after storage” value ([3]; 6.6 μL DSS solution (2:1 molar ratio)) was 98.3%. The “time solution remained clear” value ([3]; 16.5 μL DSS solution (10:1 molar ratio DSS to peptide)) was “at least 6 weeks”, the “HPLC purity after storage” value ([3]; 16.5 μL DSS solution (10:1 molar ratio)) was 97.2% and the “solution stability on addition of DSS” value ([3]; DSS 2:1 molar vs. peptide, isotonic, pH 7.8, m-cresol) was “dramatically improved”. The solution appearance ([3]; all four sample types (0, 3.3, 6.6, 16.5 μL DSS solution), after incubation for 16 hours at 37° C.) was “clear”, the solution appearance ([4]; pH about 7.7, 18 weeks at 4° C.) was “clear” and the solution appearance ([4]; pH about 7.7, 18 weeks at ambient temperature) was “clear”. For the same substance, the “HPLC purity after storage” value ([4]; 18 weeks at 4° C.) was 98.3%, the “HPLC purity after storage” value ([4]; 18 weeks at ambient temperature) was 90.8% and the “insulinotropic-like activity versus Val^8-GLP-1 in phosphate buffer solution (PBS formulation)” value [5] was “comparable in potency”. The solution appearance ([2]; 4° C.) was “hazy”, the solution appearance ([2]; ambient temperature) was “hazy” and the “secondary structure upon binding of DSS” value ([1]; circular dichroism) was “converted from mostly alpha-helix to mostly a beta sheet”.
